Molecular target: FZD1/2/4/5/7/8
Experiment: cell-based or functional assay

EC50 (nM), TOPFLASH assay: 0.4 nM | Maximal Signal (% Wnt3a maxima) (% Wnt3a maxima): 42
B1: Fab-Dia (bispecific antibody)
heavy: EVQLVESGGGLVQPGGSLRLSCAASGFNIHSSSIHWVRQAPGKGLEWVAATYSSFGSITYADSVKGRFTISADTSKNTAYLQMNSLRAEDTAVYYCARYHHPFGYALDYWGQGTLVTVSSASTKGPSVFPLAPSSKSTSGGTAALGCLVKDYFPEPVTVSWNSGALTSGVHTFPAVLQSSGLYSLSSVVTVPSSSLGTQTYICNVNHKPSNTKVDKKVEPKSCDKTHTGGSGGEVQLVESGGGLVQPGGSLRLSCAASGFTISYSSIHWVRQAPGKGLEWVASISPYYGYTYYADSVKGRFTISADTSKNTAYLQMNSLRAEDTAVYYCARSSYFPWFSAMDYWGQGTLVTVSSGGGGSDIQMTQSPSSLSASVGDRVTITCRASQSVSSAVAWYQQKPGKAPKLLIYSASSLYSGVPSRFSGSRSGTDFTLTISSLQPEDFATYYCQQYYWPITFGQGTKVEIK
light: DIQMTQSPSSLSASVGDRVTITCRASQSVSSAVAWYQQKPGKAPKLLIYSASSLYSGVPSRFSGSRSGTDFTLTISSLQPEDFATYYCQQGVYLFTFGQGTKVEIKRTVAAPSVFIFPPSDEQLKSGTASVVCLLNNFYPREAKVQWKVDNALQSGNSQESVTEQDSKDSTYSLSSTLTLSKADYEKHKVYACEVTHQGLSSPVTKSFNRGECGGGGSEVQLVESGGGLVQPGGSLRLSCAASGFTISSYYIHWVRQAPGKGLEWVASIYSSYGYTSYADSVKGRFTISADTSKNTAYLQMNSLRAEDTAVYYCARTVRGSKKPYFSGWAMDYWGQGTLVTVSSGGGGSDIQMTQSPSSLSASVGDRVTITCRASQSVSSAVAWYQQKPGKAPKLLIYSASSLYSGVPSRFSGSRSGTDFTLTISSLQPEDFATYYCQQYYFLITFGQGTKVEIK
